Tests used:
[1] = biological target: All Septins; test: HaloLink pulldown from unperturbed A375 cells, LC-MS/MS
[2] = biological target: All Septins; test: HaloLink pulldown from MV3 cells, LC-MS/MS

B1: mouse SEPT6-HALO (protein, UniProt Q9R1T4 2-434, looked up, not shown: small tags and cut ends; large carriers)
chain: AAADIARQVGEDCRTVPLAGHVGFDSLPDQLVNKSVSQGFCFNILCVGETGLGKSTLMDTLFNTKFEGEPATHTQPGVQLQSNTYDLQESNVGLKLTIVSTVGFGDQINKEDSYKPIVEFIDAQFEAYLQEELKIRRVLHSYHDSRIHVCLYFIAPTGHSLKSLDLVTMKKLDSKVNIIPVIAKSDAISKSELAKFKIKITSELVSNGVQIYQFPTDDESVSEINGTMNAHLPFAVVGSTEEVKIGNKMMRARQYPWGTVQVENEAHCDFVKLREMLIRVNMEDLREQTHARHYELYRRCKLEEMGFKDTDPDSKPFSLQETYEAKRNEFLGELQKKEEEMRQMFVQRVKEKEAELKEAEKELHEKFDRLKKLHQEEKKKLEDKKKCLDEEMNAFKQRKAAAELLQSQGSQAGGSQTLKRDKEKKNNPWLCIE
% of total protein abundance [1]: 7.04% | fold change between lysate and pulldown (% of total protein abundance) [1]: 56 fold | % of total protein abundance [2]: 8.06% | fold change between lysate and pulldown (% of total protein abundance) [2]: 35.9 fold
